Results on one molecule are retold here after PMC8138766, “Defining steps in RAVE-catalyzed V-ATPase assembly using purified RAVE and V-ATPase subcomplexes” (The Journal of Biological Chemistry, 2021).

“And” between values parts separate entries of the source, which are not always exact repeats. Equal entries are not always repeated.

The test concerns the target RAVE–V1 complex (yeast | yeast (endogenous), UniProt P47104 1-1357; Q03956 1-351; P52286 1-194; P16140 1-517; P32610 1-256; P22203 …, VMA1 intein (284-737) spliced out; Rav2 C-terminal FLAG and Skp1 C-terminal 6xGly-6xHis tags omitted; subunit C (Vma5) only substoichiometric, so omitted; V1 copy numbers (A3B3DE3FG3H) and RAVE 1:1:1). Kind of test: BLI; Octet RED384, 22 °C, PBS or TBSE with 0.5 mg/ml BSA; MBP-C (5 μg/ml) captured by anti-MBP antibody on anti-mouse IgG sensors; RAVE–V1 or RAVE in solution at varied concentrations, 2400 s association and 2400 s dissociation; global single-site fit. To be noted: both partners purified. On the technique in general: BLI is a label-free optical method that tracks binding on a fibre tip over time.

B1: maltose-binding protein (MBP)–tagged subunit C (natural protein, yeast, UniProt P31412 1-392, looked up)
chain: MATALYTANDFILISLPQNAQPVTAPGSKTDSWFNETLIGGRAFVSDFKIPEFKIGSLDTLIVESEELSKVDNQIGASIGKIIEILQGLNETSTNAYRTLPINNMPVPEYLENFQWQTRKFKLDKSIKDLITLISNESSQLDADVRATYANYNSAKTNLAAAERKKTGDLSVRSLHDIVKPEDFVLNSEHLTTVLVAVPKSLKSDFEKSYETLSKNVVPASASVIAEDAEYVLFNVHLFKKNVQEFTTAAREKKFIPREFNYSEELIDQLKKEHDSAASLEQSLRVQLVRLAKTAYVDVFINWFHIKALRVYVESVLRYGLPPHFNIKIIAVPPKNLSKCKSELIDAFGFLGGNAFMKDKKGKINKQDTSLHQYASLVDTEYEPFVMYIINL
notes: V-ATPase V1 subunit C (Vma5), yeast; MBP was not cleaved; also called MBP-C; expressed subunit C; source: E. coli Rosetta2, purified (amylose column)
As a reminder, the Kd is a measure of binding affinity in units of concentration. High values mean lower affinity, low ones higher affinity. As for B1, the Kd was 13.6 nM and 18.1 nM.
